For assay [1], the target named is asymmetric nucleosome MB/WT (MB-modified H2A/H2B S112C dimer in the upstream position, WT dimer downstream) (Xenopus) (UniProt P06897).
Assay [2] deals with asymmetric nucleosome WT/MB (WT dimer in the upstream position, MB-modified H2A/H2B S112C dimer downstream) (Xenopus) (UniProt P06897).
The target of assay [3] is H2B S112C-MB nucleosome (MB-modified H2B S112C) (Xenopus).
Assay [4] has as its target asymmetric nucleosome MB/WT (MB-modified H2A/H2B S112C dimer in the upstream position, WT dimer downstream) (Xenopus) (UniProt P06897). Description: native gel or EMSA; asymmetrically modified nucleosomes on Cy5-labelled DNA incubated with or without streptavidin, 5% acrylamide nucleoprotein gels, imaged by fluorography.
The target of assay [5] is asymmetric nucleosome WT/MB (WT dimer in the upstream position, MB-modified H2A/H2B S112C dimer downstream) (Xenopus) (UniProt P06897). The assay is described as above.
Assay [6] concerns the target H2A G2C-MB nucleosome (100% MB-modified H2A G2C, both H2A N-tails biotinylated) (Xenopus). Description: native gel or EMSA; biotin-modified or unmodified nucleosomes (radiolabelled 601 DNA) incubated with streptavidin in TE buffer for 10 min at room temperature, run on 6% native PAGE (legend of Figure 2B: 5%); mobility shift. In general terms: Mobility shift assays separate free from complexed probe on a gel.

streptavidin, sequence (P22629 25-183): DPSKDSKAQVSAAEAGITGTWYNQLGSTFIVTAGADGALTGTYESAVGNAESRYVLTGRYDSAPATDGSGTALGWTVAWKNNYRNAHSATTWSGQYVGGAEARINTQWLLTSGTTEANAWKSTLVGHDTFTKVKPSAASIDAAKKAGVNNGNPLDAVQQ

With “RSC (Remodels the Structure of Chromatin) complex, yeast (from UniProt P32597 1-1359; Q06168 1-426; Q06488 1-889; Q02206 1-625; Q07979 1-502; Q12406 1-477; Q05123 1-467)”, in assay [1], the fraction of RSC-mobilized, streptavidin-bound nucleosomes protected from Hind III digestion at the downstream end (about 40% without streptavidin) was determined as 80%. Also, the fraction of RSC-mobilized, streptavidin-bound nucleosomes protected from Hind III digestion at the downstream end (about 40% without streptavidin) in assay [2] is 20%. Also, in assay [3], the rate of HhaI digestion during RSC remodeling, nucleosomes with one streptavidin bound (1SA) against unbound nucleosomes came to 2 fold slower and the rate of HhaI digestion during RSC remodeling, nucleosomes with two streptavidins bound (2SA) against the unbound control was 20 fold slower.
“streptavidin (from UniProt P22629 25-183) (natural protein)”: the stoichiometry N (streptavidin per nucleosome) in assay [4], in assay [5] and in assay [6] was 1 each time.
